T1: AtSR1 (CAMTA3) CG-1 domain (Arabidopsis thaliana, UniProt Q8GSA7 1-153)
T1 sequence: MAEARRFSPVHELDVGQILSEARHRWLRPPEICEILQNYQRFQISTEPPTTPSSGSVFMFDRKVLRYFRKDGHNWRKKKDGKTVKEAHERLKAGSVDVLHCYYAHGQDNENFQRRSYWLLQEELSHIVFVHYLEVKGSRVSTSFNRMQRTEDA

B1: NPR1 promoter fragment (dsDNA)
DNA 1: AAAGTAAAAAACGCGGAAAGCAATAA
DNA 2: TTATTGCTTTCCGCGTTTTTTACTTT
B2: IAA1-2 promoter fragment (dsDNA)
DNA 1: AAGAAAGAAGCCGCGTCCAAAATCTT
DNA 2: AAGATTTTGGACGCGGCTTCTTTCTT
B3: At5g41750-1 promoter fragment (dsDNA)
DNA 1: TCTTTAGTCGTCGCGAATTCTTTGGG
DNA 2: CCCAAAGAATTCGCGACGACTAAAGA
B4: PDF1.4 promoter fragment (dsDNA)
DNA 1: CGTGAAAGTCACGCGCCAAGAACAAA
DNA 2: TTTGTTCTTGGCGCGTGACTTTCACG
B5: DWF4 promoter fragment (dsDNA)
DNA 1: ATAAGCCTATACGCGCTCAAAGTATG
DNA 2: CATACTTTGAGCGCGTATAGGCTTAT
B6: ADR1 promoter fragment (dsDNA)
DNA 1: ATTAATCAAAACGCGTAAAAAGAGTA
DNA 2: TACTCTTTTTACGCGTTTTGATTAAT
B7: At5g41750-2 promoter fragment (dsDNA)
DNA 1: TCATTGGTCCTCGCGACTATAACAAA
DNA 2: TTTGTTATAGTCGCGAGGACCAATGA
B8: IAA19 promoter fragment (dsDNA)
DNA 1: AAAAAGCACGACGCGGTGCCATTACT
DNA 2: AGTAATGGCACCGCGTCGTGCTTTTT
B9: SAUR41 promoter fragment (dsDNA)
DNA 1: AACGAAGGGCCCGCGCTGTACTCGAT
DNA 2: ATCGAGTACAGCGCGGGCCCTTCGTT

Target: T1, AtSR1 (CAMTA3) CG-1 domain
Experiment: EMSA; EMSA; buffer, salt, pH and temperature not given in the material
Details: protein: recombinant; tags: 6His (pET32a-derived plasmid)

| Binder | binding result |
| --- | --- |
| B1 | binds |
| B2 | binds |
| B3 | no binding |
| B4 | binds |
| B5 | binds |
| B6 | binds |
| B7 | binds |
| B8 | binds |
| B9 | no binding |

From article PMC6032152, “Ca2+/Calmodulin-Dependent AtSR1/CAMTA3 Plays Critical Roles in Balancing Plant Growth and Immunity”
